This is an account of results in article PMC3814001.

Assay [1] has as its target RIIα (type IIα regulatory subunit of PKA), wild type, RIIα-6xHis (mouse) (UniProt P12367). As to the kind of experiment: native gel or EMSA; SEC peak fraction on precast 3–8% Tris-Acetate native gels, 50 mM Tris pH 8.3, 50 mM Tricine, silver staining. On the technique in general: Mobility shift assays separate free from complexed probe on a gel.
For assay [2], the target named is PKA holoenzyme (PKA_(holo)) formed by wild-type RIIα and PKAc (mouse) (UniProt P12367). The description is as above.
In assay [3] the target is AKAP18γ (human γ isoform of AKAP18), strep-II and 6xHis tagged (human).
Assay [4] concerns the target AKAP18γ–GFP (human).

Sequence of AKAP18γ–GFP (human) (Q9P0M2 whole entry): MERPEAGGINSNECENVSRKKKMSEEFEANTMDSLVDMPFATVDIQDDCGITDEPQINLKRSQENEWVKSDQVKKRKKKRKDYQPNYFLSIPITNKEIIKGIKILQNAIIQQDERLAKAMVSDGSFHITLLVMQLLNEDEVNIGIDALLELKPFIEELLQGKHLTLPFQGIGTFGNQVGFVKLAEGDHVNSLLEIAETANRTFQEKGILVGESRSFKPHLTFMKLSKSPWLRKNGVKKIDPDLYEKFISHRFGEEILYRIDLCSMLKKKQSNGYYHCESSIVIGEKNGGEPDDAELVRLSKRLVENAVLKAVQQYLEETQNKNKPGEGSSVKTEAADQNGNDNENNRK

As a reminder, the stoichiometry N is the number of molecules, sites or subunits per partner or assembly. Turning to “RIIα (type IIα regulatory subunit of PKA), wild type, RIIα-6xHis (from UniProt P12367 1-401) (natural protein; other documents disagree on this pair)”, the stoichiometry N in assay [1] came to 2 subunits.

“AKAP18γ (human γ isoform of AKAP18), strep-II and 6xHis tagged (natural protein)” displayed a stoichiometry N (AKAP18γ per RIIα dimer with two PKAc) in assay [2] of 1.

As for “PDE4D (type 4 phosphodiesterase isoforms PDE4D3 / PDE4D5) (enzyme)”, the basal (cAMP-independent) 32P incorporation into PDE4D by PKA holoenzyme with against without AKAP18γ, autoradiography; the substrate here was purified MBP-PDE4D3 in assay [3] was determined as 1.87 fold. This substance also yielded a cAMP phosphodiesterase activity in anti-GFP immune complexes from HEK293 cells, fold over GFP controls or rolipram-treated samples in assay [4] of 3.27 fold.
